Data reported in US20130266515, “Specific Ligand for Annexin 2” (Commissariat A L'Energie Atomique ET AUX Energies …, published 2013).

Assays:
annexin 2 [1] = target: T1, annexin 2 (Homo sapiens, UniProt P07355 SEQ:2-339); assay: MDA-MB-231 cells, Scatchard; Cmax 167 pM; settings: label: 32P, phycoerythrin, Alexa Fluor 546, biotin or Quantum Dot depending on assay; predicted secondary structure with potential pseudoknots
Description: (§1) The binding curves were obtained for each cell type. On the basis of the specific binding, and using the Scatchard representation, the Kd and the number of targets per cell were determined for each of the cell types. The target of the ACE8 aptamer appears to be highly abundant at the surface of two human cancer lines (MCF-7 and A-431).

[2] = target: annexin 2/S100A10 heterotetrameric complex (Bos taurus, UniProt P04272;P60902 P04272:2-339,P60902:2-97); assay: filter; 0-12.5 nM protein, 1 pmol RNA in 200 ul RPMI 1640, 3 ug yeast tRNA, ambient temperature; very strong affinity compared with control; settings: tags: purified from bovine lung, Interchim A80109B; chain copies: 2 annexin 2 + 2 S100A10 (stated); label: 32P, phycoerythrin, Alexa Fluor 546, biotin or Quantum Dot depending on assay; predicted secondary structure with potential pseudoknots
annexin 2/S100A10 heterotetrameric complex, sequence (P04272 2-339, chain 1 of 2): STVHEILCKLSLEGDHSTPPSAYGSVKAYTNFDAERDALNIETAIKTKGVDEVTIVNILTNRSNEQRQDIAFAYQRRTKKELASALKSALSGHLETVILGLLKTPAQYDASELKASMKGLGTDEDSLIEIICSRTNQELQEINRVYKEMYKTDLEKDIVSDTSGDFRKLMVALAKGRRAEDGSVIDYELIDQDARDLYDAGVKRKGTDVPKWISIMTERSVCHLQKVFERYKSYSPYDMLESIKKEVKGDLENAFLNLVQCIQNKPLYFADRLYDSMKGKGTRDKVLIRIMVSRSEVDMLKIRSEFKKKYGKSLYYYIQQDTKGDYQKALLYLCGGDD
annexin 2/S100A10 heterotetrameric complex, sequence (P60902 2-97, chain 2 of 2): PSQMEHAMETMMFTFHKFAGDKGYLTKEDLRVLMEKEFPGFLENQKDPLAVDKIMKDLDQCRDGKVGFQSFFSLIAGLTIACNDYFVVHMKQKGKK
Description: 1 pmol of ACE8 aptamer or of the control sequence was then preincubated with various concentrations of an annexin 2/S100A10 heterotetrameric complex. The fraction of ACE8 aptamer or of control sequence bound to the annexin 2/S100A10 heterotetramer was retained on a nitrocellulose filter and analyzed and quantified using a Storm Phosphorimager. […] FIG. 23 represents the quantification of the amount of oligonucleotides retained on the filter as a function of the concentration of annexin 2/S100A10 heterotetramer.
For this, the oligonucleotides (ACE8 aptamer or control sequence (SEQ ID NO: 11)) were dephosphorylated at their 5′ end for 30 min at 37° C. with 2.5 U of Antarctic Phosphatase (New-England Biolabs) per nmol of 2′F-Py RNA. After inactivation of the enzyme at 88° C. for 15 min, the 2′F-Py RNA was precipitated with ethanol in the presence of 5 μl/ml of a neutral coprecipitant (Linear Polyacrylamide or LPA) (Ambion). The oligonucleotides were then labeled with ATP [gamma-³²P] using T4 kinase (invitrogen) according to the supplier's instructions. The 2′F-Py RNAs (2.3 MBq, i.e. 63nCi/pmol or 63nCi/pmol⁻¹) were subsequently purified by exclusion chromatography (Bio-Spin Sp30 Chromatography Columns (Biorad)). […]

annexin 2 [3] = target: T1, annexin 2; assay: A-431 cells, Scatchard; Cmax 450 pM; settings: label: 32P, phycoerythrin, Alexa Fluor 546, biotin or Quantum Dot depending on assay; predicted secondary structure with potential pseudoknots
Description: as §1

annexin 2 [4] = target: T1, annexin 2; assay: U87-MG cells, Scatchard; Cmax 245 pM; settings: label: 32P, phycoerythrin, Alexa Fluor 546, biotin or Quantum Dot depending on assay; predicted secondary structure with potential pseudoknots
annexin 2 [5] = target: T1, annexin 2; assay: HEK-293 cells, Scatchard; Cmax 269 pM; settings: label: 32P, phycoerythrin, Alexa Fluor 546, biotin or Quantum Dot depending on assay; predicted secondary structure with potential pseudoknots

T1 sequence (P07355 2-339): as the sequence (P04272 2-339, chain 1 of 2) above, with E65A, V159I, C222P, E229D, K244R, K308R counted along it

B1: ACE8 (ssRNA)
RNA: GGGAGAUGAUCCGUUGAUGCGAGGGAACGCAAGAACUGAGGCCAUGAGGCGCCUUCCCUUGCUCAGGACGCAAGUCGUCGUUCGUAGGCAGAAUC
modifications: 2'-F pyrimidines, 2'-OH purines
- Kd (annexin 2 [1]): 4.4 nM
- binding result [2]: binds
- Kd (annexin 2 [3]): 5.3 nM
- Kd (annexin 2 [4]): 12.7 nM
- Kd (annexin 2 [5]): 4.4 nM
